Test results as given in paper PMC4932527.

Target: human LEPTIN receptor expressed in 293FT cells (human) (UniProt P48357)
Chain of UniProt P48357 (P48357 22-1165): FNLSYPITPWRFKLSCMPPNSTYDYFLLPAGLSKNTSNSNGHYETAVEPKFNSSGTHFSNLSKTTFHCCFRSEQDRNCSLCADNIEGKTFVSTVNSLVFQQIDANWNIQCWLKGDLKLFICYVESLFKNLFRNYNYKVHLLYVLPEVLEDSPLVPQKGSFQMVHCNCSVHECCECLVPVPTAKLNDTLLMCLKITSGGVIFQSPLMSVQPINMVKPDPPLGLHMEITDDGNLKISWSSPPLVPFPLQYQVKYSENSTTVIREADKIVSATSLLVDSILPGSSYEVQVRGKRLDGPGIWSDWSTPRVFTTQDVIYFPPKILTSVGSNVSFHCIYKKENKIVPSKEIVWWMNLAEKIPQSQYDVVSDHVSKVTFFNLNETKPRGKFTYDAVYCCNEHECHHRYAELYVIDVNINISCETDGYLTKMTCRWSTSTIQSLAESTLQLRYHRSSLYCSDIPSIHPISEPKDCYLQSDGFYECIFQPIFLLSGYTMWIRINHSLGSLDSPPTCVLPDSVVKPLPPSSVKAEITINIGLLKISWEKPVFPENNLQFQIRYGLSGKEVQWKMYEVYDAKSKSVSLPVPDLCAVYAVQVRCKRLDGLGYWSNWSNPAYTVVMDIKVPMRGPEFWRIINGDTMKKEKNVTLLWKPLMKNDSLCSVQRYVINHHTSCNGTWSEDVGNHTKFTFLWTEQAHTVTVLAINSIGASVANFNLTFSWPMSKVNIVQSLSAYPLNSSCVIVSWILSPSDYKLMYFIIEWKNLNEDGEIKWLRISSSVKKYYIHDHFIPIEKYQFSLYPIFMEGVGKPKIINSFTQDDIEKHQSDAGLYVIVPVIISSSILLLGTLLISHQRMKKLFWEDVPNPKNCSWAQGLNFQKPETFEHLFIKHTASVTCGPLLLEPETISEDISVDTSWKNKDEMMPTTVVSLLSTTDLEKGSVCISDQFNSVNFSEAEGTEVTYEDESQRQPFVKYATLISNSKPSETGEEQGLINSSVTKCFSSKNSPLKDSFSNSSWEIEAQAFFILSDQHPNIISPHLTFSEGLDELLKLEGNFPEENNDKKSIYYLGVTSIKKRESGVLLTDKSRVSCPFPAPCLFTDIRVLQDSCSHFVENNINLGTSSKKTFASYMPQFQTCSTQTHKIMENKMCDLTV

STAT3 luciferase reporter (pGL6-Stat3, normalised to renilla) in 293FT cells transfected with LEPR, treated with different concentrations of recombinant LEP; EC50 of activation: 3e-09 M
Substance: recombinant rat LEPTIN, wild type (from UniProt P50596 22-167) (ligand)
